{
  "source": "patent US20260184748A1",
  "about": "(University of Pennsylvania, published 2026)",
  "binders": {"B1": {"name": "octadecaneuropeptide (ODN) (peptide)", "peptide": "QATVGDVNTDRPGLLDLK", "modifications": "also: synthesised on Rink amide resin, C-terminal amide not given here outright"}},
  "assay_in_all_cases": "cell-based or functional assay",
  "key": {"[1]": {"target": "T1, CCR4 (UniProt P51679 1-360)", "T1 sequence (looked up)": "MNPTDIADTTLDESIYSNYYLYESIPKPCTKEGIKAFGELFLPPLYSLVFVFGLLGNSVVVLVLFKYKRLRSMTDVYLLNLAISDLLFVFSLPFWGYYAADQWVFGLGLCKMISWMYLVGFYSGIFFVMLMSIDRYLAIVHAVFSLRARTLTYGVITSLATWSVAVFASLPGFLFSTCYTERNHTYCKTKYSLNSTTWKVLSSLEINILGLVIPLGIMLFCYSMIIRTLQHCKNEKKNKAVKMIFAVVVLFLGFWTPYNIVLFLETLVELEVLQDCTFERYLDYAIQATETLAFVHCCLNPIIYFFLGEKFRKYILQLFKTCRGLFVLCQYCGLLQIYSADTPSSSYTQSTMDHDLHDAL"}, "[2]": {"target": "T2, CHRM5 (UniProt P08912 1-532)", "T2 sequence (looked up)": "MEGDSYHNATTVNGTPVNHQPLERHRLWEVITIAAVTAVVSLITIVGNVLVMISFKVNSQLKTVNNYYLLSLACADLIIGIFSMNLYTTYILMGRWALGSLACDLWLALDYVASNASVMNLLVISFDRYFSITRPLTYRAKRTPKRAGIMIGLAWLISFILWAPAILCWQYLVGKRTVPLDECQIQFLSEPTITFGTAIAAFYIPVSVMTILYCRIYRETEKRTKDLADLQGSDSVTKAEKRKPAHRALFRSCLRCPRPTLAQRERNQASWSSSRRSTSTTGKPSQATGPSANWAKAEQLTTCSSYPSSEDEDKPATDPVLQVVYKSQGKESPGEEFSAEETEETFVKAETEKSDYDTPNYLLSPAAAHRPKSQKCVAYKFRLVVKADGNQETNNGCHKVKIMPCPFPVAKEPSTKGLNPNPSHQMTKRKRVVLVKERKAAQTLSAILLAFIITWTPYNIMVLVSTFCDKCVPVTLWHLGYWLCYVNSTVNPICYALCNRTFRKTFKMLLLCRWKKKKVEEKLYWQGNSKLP"}, "[3]": {"target": "CHRM3 (UniProt P20309 1-590)", "sequence (P20309 whole entry)": "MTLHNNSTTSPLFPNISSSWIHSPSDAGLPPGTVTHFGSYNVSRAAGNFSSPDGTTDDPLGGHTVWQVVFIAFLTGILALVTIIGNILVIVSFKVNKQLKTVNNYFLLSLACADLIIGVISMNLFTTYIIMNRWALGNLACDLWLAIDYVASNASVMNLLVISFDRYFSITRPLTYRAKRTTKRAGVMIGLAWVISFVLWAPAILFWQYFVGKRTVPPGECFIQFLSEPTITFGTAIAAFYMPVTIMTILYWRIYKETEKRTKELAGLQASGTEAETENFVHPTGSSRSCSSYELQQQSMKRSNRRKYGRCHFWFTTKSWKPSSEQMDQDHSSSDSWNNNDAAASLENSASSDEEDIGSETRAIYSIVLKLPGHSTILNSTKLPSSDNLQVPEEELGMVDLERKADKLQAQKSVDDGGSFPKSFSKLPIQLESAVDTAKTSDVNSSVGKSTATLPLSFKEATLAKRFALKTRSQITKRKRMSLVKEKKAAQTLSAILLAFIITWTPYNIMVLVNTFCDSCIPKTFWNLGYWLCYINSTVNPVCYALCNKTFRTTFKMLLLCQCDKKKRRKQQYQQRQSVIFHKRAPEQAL"}, "[4]": {"target": "PROKR1 (UniProt Q8TCW9 1-393)", "sequence (Q8TCW9 whole entry)": "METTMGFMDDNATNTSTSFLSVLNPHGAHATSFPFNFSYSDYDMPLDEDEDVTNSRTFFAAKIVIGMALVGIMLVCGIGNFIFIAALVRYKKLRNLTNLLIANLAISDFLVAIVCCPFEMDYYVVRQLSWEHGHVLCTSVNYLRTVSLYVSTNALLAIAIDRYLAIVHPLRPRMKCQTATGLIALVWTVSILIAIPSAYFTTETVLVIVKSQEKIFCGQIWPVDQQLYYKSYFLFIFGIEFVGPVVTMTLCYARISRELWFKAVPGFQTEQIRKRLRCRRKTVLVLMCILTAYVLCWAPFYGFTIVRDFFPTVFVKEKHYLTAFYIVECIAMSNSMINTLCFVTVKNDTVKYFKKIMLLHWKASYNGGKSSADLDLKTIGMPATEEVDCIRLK"}, "[5]": {"target": "T3, CCKBR (UniProt P32239 1-447)", "T3 sequence (looked up)": "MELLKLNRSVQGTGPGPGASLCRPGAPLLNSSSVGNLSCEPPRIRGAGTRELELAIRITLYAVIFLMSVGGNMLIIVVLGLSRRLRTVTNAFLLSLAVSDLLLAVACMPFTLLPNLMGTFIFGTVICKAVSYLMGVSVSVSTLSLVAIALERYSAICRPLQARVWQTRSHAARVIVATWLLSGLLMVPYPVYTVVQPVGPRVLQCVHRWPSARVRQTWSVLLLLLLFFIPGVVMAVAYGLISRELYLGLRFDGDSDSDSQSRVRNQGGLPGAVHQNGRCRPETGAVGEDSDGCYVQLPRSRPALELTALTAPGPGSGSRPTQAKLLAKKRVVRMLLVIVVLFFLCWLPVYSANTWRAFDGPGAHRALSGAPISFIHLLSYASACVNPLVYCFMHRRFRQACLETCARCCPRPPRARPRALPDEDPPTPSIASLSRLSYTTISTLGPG"}, "[6]": {"target": "DRD2S (UniProt P14416-2 1-414)", "sequence (P14416 other isoform, or with tags, fused parts or gaps limits assumed)": "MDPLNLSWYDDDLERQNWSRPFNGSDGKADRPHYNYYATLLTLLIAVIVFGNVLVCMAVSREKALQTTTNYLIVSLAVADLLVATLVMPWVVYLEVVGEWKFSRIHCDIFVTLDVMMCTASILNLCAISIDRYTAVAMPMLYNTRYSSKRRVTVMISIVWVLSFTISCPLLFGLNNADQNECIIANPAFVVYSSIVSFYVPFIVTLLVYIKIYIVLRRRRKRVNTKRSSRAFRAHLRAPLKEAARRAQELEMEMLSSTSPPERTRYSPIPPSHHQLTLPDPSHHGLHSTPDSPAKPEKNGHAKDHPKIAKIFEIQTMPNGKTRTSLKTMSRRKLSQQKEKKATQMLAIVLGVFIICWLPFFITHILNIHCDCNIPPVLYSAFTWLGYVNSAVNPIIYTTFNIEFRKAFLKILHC"}, "[7]": {"target": "T4, UTR2 (UniProt Q9UKP6 1-389)", "T4 sequence (looked up)": "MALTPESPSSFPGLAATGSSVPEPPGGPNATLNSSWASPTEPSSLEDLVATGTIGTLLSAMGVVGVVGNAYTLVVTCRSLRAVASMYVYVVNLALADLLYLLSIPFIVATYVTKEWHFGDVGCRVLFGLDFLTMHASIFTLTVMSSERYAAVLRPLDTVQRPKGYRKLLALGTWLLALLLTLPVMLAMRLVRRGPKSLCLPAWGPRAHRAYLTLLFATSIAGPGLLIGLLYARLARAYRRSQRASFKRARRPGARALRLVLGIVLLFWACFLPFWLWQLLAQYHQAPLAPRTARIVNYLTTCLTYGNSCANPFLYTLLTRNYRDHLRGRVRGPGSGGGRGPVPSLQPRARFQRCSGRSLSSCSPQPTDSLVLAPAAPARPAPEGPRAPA"}, "[8]": {"target": "T5, CRHR2 (UniProt Q13324 1-411, limits assumed)", "T5 sequence (looked up)": "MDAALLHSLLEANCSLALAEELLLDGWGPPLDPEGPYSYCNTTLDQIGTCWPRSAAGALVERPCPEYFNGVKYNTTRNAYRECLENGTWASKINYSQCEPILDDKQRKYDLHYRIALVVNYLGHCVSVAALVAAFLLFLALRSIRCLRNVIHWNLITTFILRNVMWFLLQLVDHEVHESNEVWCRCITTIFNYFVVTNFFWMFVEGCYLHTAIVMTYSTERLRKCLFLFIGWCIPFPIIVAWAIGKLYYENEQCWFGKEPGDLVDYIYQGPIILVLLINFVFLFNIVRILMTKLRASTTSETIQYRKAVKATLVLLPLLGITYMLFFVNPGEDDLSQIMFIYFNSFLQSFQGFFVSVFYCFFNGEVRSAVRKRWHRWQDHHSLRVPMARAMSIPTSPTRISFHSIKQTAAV"}, "[9]": {"target": "T6, C3AR1 (UniProt Q16581 1-482)", "T6 sequence (looked up)": "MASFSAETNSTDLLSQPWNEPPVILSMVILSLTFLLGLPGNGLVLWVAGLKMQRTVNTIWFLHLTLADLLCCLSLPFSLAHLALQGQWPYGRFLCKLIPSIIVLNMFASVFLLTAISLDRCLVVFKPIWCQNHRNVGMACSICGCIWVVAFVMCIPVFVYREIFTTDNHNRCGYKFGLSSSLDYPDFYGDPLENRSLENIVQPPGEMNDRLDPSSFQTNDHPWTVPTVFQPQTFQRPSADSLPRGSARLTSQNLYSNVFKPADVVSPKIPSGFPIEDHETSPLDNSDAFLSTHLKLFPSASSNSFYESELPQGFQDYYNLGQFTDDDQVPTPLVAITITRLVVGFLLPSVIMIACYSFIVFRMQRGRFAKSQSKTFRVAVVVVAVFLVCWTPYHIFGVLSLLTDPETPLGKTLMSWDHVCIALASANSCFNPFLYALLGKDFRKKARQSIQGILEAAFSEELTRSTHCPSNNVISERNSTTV"}},
  "note": "Where no end group is shown, it is not given here.",
  "data": [
    {"binder": "B1", "values": [
      {"measurement": "% Activity, arrestin, antagonist mode, 2.5 uM", "setting": "[1]", "value": 1.3, "unit": "%"},
      {"measurement": "% Activity, arrestin, antagonist mode, 2.5 uM", "setting": "[2]", "value": -1.5, "unit": "%"},
      {"measurement": "% Activity, arrestin, antagonist mode, 2.5 uM", "setting": "[3]", "value": 12.6, "unit": "%"},
      {"measurement": "% Activity, arrestin, antagonist mode, 2.5 uM", "setting": "[4]", "value": -12.4, "unit": "%"},
      {"measurement": "% Activity, arrestin, antagonist mode, 2.5 uM", "setting": "[5]", "value": -7.8, "unit": "%"},
      {"measurement": "% Activity, arrestin, antagonist mode, 2.5 uM", "setting": "[6]", "value": -13.4, "unit": "%"},
      {"measurement": "% Activity, arrestin, antagonist mode, 2.5 uM", "setting": "[7]", "value": -27.2, "unit": "%"},
      {"measurement": "% Activity, arrestin, antagonist mode, 2.5 uM", "setting": "[8]", "value": -8.6, "unit": "%"},
      {"measurement": "% Activity, arrestin, antagonist mode, 2.5 uM", "setting": "[9]", "value": 4, "unit": "%"}
    ]}
  ]
}
